The values below come from article PMC9976466, “Insights into the structure-function relationship of the NorQ/NorD chaperones from Paracoccus denitrificans reveal shared principles of interacting MoxR AAA+/VWA domain proteins” (BMC Biology, 2023).

For one data set, the target named is T1, NorQ (Paracoccus denitrificans, UniProt Q51664, E109Q).
T1 construct: full length, N-terminal 6-His tag (pET-hQ), expressed in E. coli BL21(DE3); ~30 kDa monomer, several oligomeric states up to hexamer
Nature of the data set: Blue Native PAGE, ATP-induced shift to hexamer. The format is binding. The note with it: 2 mM ATP, 20 mM MgCl2; Walker B variant, ATPase activity lost.

Data set [1] has as its target 6-His-tagged NorD (Paracoccus denitrificans). In words: native gel or EMSA; BN-PAGE of purified NorQ^WBD (~10 μg per lane) after addition of ATP.
Data set [2] concerns the molecule itself. Described as above.
Data set [3] concerns the molecule itself. In words: native gel or EMSA + SEC; BN-PAGE (NativePAGE 4-16% Bis-Tris, 4 °C) of purified NorQ (14 μg) and NorQ^WB (18 μg), with 2 mM ATP and 20 mM MgCl2 in Fig. 2b; SEC on Superdex 200 in 20 mM TRIS/HCl pH 8, 300 mM NaCl, 10% glycerol.

“And” between values parts separate entries of the source, which are not always exact repeats. Equal entries are not always repeated.

Turning to `Nc1ncnc2c1ncn2[C@@H]1O[C@H](COP(=O)(O)OP(=O)(O)OP(=O)(O)O)[C@@H](O)[C@H]1O` [ATP], on NorQ, the “Blue Native PAGE, ATP-induced shift to hexamer” value is recorded as “clear shifting of the oligomerization state to the hexamer (Fig. 2b) for the NorQ^WB”.

B1: untagged NorQ^WB (E109Q), co-expressed with 6-His-tagged NorD (enzyme, Paracoccus denitrificans, UniProt Q51664 1-270, looked up)
chain: MNAHVKTQGNGAVDAPFYLPQGDEVAVFEAAAANDLPVLLKGPTGCGKTRFVAHMAARLGRPLYTVACHDDLSAADLIGRYLLKGGETVWTDGPLTRAVREGAICYLDQVVEARKDVTVVLHPLTDDRRILPIDRTGEEIEAAPGFMLVASYNPGYQNILKTLKPSTRQRFVAMEFDFPEPAREVEIVARESGLDRDRTLGLVRLAGKIRGLKGQDLEEGVSTRLVVYAASLTRRGMNLDRAIEAAMIEPLTDDAEVKRGLRDLAAAIFG
notes: NorQ of Paracoccus denitrificans, Uniprot Q51663, Walker B variant; the norQ gene was cloned into a pET21a backbone with the T7 RBS; Hexameric within the NorQ^WBD complex (BN-PAGE, cryo-EM); trimer to hexamer after addition of ATP; also called NorQ^WB (in NorQ^WBD; Q^WBD)
The term stoichiometry N denotes the number of molecules, sites or subunits per partner or assembly. On to B1, for which the stoichiometry N in data set [1] and in data set [2] was 3 in each case.

B2: wildtype 6-His-tagged NorQ (enzyme, Paracoccus denitrificans, UniProt Q51664 1-270, looked up)
chain: MNAHVKTQGNGAVDAPFYLPQGDEVAVFEAAAANDLPVLLKGPTGCGKTRFVAHMAARLGRPLYTVACHDDLSAADLIGRYLLKGGETVWTDGPLTRAVREGAICYLDEVVEARKDVTVVLHPLTDDRRILPIDRTGEEIEAAPGFMLVASYNPGYQNILKTLKPSTRQRFVAMEFDFPEPAREVEIVARESGLDRDRTLGLVRLAGKIRGLKGQDLEEGVSTRLVVYAASLTRRGMNLDRAIEAAMIEPLTDDAEVKRGLRDLAAAIFG
notes: NorQ, MoxR-class AAA+ ATPase of Paracoccus denitrificans, Uniprot Q51663; the norQ gene was cloned into a pET21a backbone; about 30 kDa; Expressed without NorD; Forms several oligomeric states from monomer to hexamer; source: dialysis
Consider B2, for which the “stoichiometry N” value in data set [3] was 6 and 3 and 4 and 5.
